Measured values as given in publication PMC9638933.

Tests used:
Test in all cases: EMSA; supershift; EMSA: 50 mM Tris-HCl pH 8.0, 50 mM NaCl, 1 mM DTT, 5 mM MgCl2, 4% glycerol, 0.025 mg/ml BSA, 10 nM DNA, 30 C 20 min; FP: 10 mM Tris-HCl pH 8, 10 mM NaCl, 10% glycerol, 1 mM TCEP, 50 nM DNA, 30 C; ternary EMSA: 20 mM Tris-HCl pH 8.0, 5 mM MgCl2, 5% glycerol, 37 C; bridging: 20 mM Tris-HCl pH 7.5, 50 mM KCl, 5 mM EDTA, 1 mM DTT, 5% glycerol, 40 ug/ml BSA, room temperature
Conditions in all cases: protein: recombinant;recombinant; tags: His (Ni-NTA purified; pMCSG7);His (Ni-NTA purified); chain copies: 2;1; label: 5' 6-FAM on strand 1; blunt
[1] = biological target: Kucore;POL (Mycobacterium …, UniProt P9WKD9;P9WNV3 1-238;1-287, |)
Sequence of Kucore;POL (P9WKD9 1-238, chain 1 of 2): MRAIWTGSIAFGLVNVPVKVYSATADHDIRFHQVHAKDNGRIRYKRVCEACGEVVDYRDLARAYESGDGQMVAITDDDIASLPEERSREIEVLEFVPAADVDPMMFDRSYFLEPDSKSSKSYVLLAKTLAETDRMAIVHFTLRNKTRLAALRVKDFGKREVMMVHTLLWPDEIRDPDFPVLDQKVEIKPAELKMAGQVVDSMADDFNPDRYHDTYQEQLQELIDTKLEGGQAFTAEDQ
Sequence of Kucore;POL (P9WNV3 1-287, chain 2 of 2): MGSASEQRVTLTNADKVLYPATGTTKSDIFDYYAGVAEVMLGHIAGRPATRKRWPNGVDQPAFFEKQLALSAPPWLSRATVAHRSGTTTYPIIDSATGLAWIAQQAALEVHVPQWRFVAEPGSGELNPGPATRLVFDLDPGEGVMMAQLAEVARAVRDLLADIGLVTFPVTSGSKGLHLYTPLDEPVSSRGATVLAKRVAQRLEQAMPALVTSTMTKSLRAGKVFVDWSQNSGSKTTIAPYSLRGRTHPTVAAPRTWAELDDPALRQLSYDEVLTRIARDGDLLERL

[2] = biological target: KuWT;POL (Mycobacterium …, UniProt P9WKD9;P9WNV3 1-273;1-287, |)
Sequence of KuWT;POL (P9WNV3 1-287, one chain of several): as the sequence (P9WNV3 1-287, chain 2 of 2) above

[3] = biological target: KuWT;LIG (Mycobacterium …, UniProt P9WKD9;P9WNV3 1-273;454-759, |)
Sequence of KuWT;LIG (P9WKD9 whole entry, chain 1 of 2): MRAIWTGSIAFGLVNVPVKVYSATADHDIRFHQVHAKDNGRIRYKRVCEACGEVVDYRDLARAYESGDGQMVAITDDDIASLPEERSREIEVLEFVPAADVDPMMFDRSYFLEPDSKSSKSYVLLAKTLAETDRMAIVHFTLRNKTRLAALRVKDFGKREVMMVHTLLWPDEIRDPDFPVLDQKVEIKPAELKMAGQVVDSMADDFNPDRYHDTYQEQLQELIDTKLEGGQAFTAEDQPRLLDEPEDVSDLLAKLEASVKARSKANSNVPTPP
Sequence of KuWT;LIG (P9WNV3 454-759, chain 2 of 2): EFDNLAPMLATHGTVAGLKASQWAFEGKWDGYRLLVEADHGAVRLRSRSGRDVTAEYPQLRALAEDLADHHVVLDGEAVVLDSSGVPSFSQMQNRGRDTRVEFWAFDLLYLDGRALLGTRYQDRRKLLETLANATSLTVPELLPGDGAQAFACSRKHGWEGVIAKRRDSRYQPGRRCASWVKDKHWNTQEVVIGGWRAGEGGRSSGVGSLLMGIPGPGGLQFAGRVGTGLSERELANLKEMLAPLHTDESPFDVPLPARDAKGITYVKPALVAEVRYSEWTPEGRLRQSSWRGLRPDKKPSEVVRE

[4] = biological target: Kucore;LIG (Mycobacterium …, UniProt P9WKD9;P9WNV3 1-238;454-759, |)
Sequence of Kucore;LIG (P9WNV3 454-759, one chain of several): as the sequence (P9WNV3 454-759, chain 2 of 2) above

[5] = biological target: Kumin;LIG (Mycobacterium …, UniProt P9WKD9;P9WNV3 1-259;454-759, |)
Sequence of Kumin;LIG (P9WKD9 1-259, chain 1 of 2): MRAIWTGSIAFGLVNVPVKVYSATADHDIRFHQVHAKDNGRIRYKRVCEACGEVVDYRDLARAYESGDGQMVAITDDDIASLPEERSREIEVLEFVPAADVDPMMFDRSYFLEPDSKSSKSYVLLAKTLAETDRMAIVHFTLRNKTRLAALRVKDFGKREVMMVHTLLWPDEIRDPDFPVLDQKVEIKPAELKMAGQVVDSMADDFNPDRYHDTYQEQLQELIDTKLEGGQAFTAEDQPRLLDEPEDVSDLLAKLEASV
Sequence of Kumin;LIG (P9WNV3 454-759, chain 2 of 2): as the sequence (P9WNV3 454-759, chain 2 of 2) above

[6] = biological target: Kumin;POL (Mycobacterium …, UniProt P9WKD9;P9WNV3 1-259;1-287, |)
Sequence of Kumin;POL (P9WNV3 1-287, one chain of several): as the sequence (P9WNV3 1-287, chain 2 of 2) above

Measured: binding result

B1: 40 bp dsDNA (dsDNA)
DNA 1: CAGGGTAAGTGTGGAGGTGTAGGGAAGGGAATGTTGTCTG
DNA 2: CAGACAACATTCCCTTCCCTACACCTCCACACTTACCCTG
binds: all assays above
